The target in test [1] is plasma-derived von Willebrand factor, highly purified in-house control preparation (human) (UniProt P04275). As to the kind of experiment: ELISA + SPR; VWF:FVIIIB, measured by an ELISA combined with a chromogenic assay (ECA) and by Biacore; the table does not say which gave the percent. In general terms: ELISA stands for enzyme-linked immunosorbent assay.
Test [2] deals with recombinant von Willebrand factor, furin-matured (human) (UniProt P04275). Described as above.

Take factor VIII, P00451 20-2351: the VWF:FVIII binding capacity (%) in test [1] stood at 109%; in test [2] it was 108%.
